Publication PMC8005443

Experiments:
[1] = target: PI3Kγ-RBD (residues 193–316) (human) (UniProt P48736); test: ITC
[2] = target: PI3Kα-RBD (Human PI3Kα residues 157–300) (human) (UniProt P42336); test: ITC

Substance | Kd [1] [nM] | dH [1] [kcal/mol] | stoichiometry N [1] | Kd [2] [nM] | dH [2] [kcal/mol] | stoichiometry N [2]
KRAS4B^G12V (from UniProt P01116-2 1-169) (enzyme) | 2400 | -4.16 | 0.81 | 2300 | -3.82 | 1.07
KRAS4B^Q61H (from UniProt P01116-2 1-169) (enzyme) | 2600 | -2.97 | 0.91 | 4000 | -2.59 | 1.06
